Measurements reported in US20190359687A1.
Where a chain is given by its changes, count along the chain named. In names and notes the source's numbering stands.

How the values were obtained:
[1] = biological target: purified human glycophorin A protein (Sigma, cat # G5017) (human) (UniProt P02724); assay: ELISA, native hGPA
[2] = biological target: recombinant human GPA ectodomain (human) (UniProt P02724); assay: ELISA, rec hGPA ectodomain
[3] = biological target: T1, GP5-12 alanine scanning peptide (human); assay: alanine scanning peptide ELISA
T1 sequence (peptide, N-terminal biotin): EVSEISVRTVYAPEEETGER

[4] = biological target: T2, GP5-10 alanine scanning peptide (human); assay: alanine scanning peptide ELISA
T2 sequence (peptide, N-terminal biotin): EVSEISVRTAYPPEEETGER

[5] = biological target: T3, GP5-15 alanine scanning peptide (human); assay: alanine scanning peptide ELISA
T3 sequence (peptide, N-terminal biotin): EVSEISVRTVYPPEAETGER

[6] = biological target: human glycophorin A on human red blood cells or red blood cell membranes (human) (UniProt P02724); assay: ELISA, Fab on coated human RBC membranes
[7] = biological target: human glycophorin A on human red blood cells or red blood cell membranes (human) (UniProt P02724); assay: scFv on intact human RBC, unbound scFv by ELISA; 20 min after 200-fold dilution
[8] = biological target: human glycophorin A on human red blood cells or red blood cell membranes (human) (UniProt P02724); assay: scFv on intact human RBC, unbound scFv by ELISA; 0 min after 200-fold dilution
[9] = biological target: human glycophorin A on human red blood cells or red blood cell membranes (human) (UniProt P02724); assay: scFv 7 ug/ml on intact human RBC, unbound scFv by ELISA; pre-dilution
[10] = biological target: human glycophorin A on human red blood cells or red blood cell membranes (human) (UniProt P02724); assay: scFv on intact human RBC, unbound scFv by ELISA; 60 min after 200-fold dilution
[11] = biological target: human glycophorin A on human red blood cells or red blood cell membranes (human) (UniProt P02724); assay: scFv on intact human RBC, unbound scFv by ELISA; 120 min after 200-fold dilution
[12] = biological target: human glycophorin A on human red blood cells or red blood cell membranes (human) (UniProt P02724); assay: scFv on intact human RBC, unbound scFv by ELISA; 5 min after 200-fold dilution

B1: TPP-5321 (Fab, V domains shown)
VH: EVQLVQSGAEVKKPGASVKVSCKASGYTFTTYTIHWVRQAPGQGLEWIGIINPSSDYTRYNPKFKDRVTLTTDKSTSTAYMELRSLRSDDTAVYYCQTGTRDYWGQGTTVTVSS
VL: DIQLTQSPSFLSASVGDRVTITCSAASSVSYIYWFQQKPGKAPKLLIYSTSTLPSGVPSRFSGSGSGTEYTLTISSLQPEDFATYYCHQRNSFPFTFGQGTKLEIKR
- binding by ELISA relative to parental [1]: 0.06

B2: TPP-5325 (Fab, V domains shown)
VH: B1 VH with I50Y, R59S
VL: B1 VL
- binding by ELISA relative to parental [1]: 0.07

B3: TPP-5336 (Fab, V domains shown)
VH: B1 VH with I50Y, T98R
VL: B1 VL
- binding by ELISA relative to parental [1]: 0.06

B4: TPP-5346 (Fab, V domains shown)
VH: B1 VH with I50Y
VL: B1 VL with Y33A
- binding by ELISA relative to parental [1]: 0.04

B5: TPP-5349 (Fab, V domains shown)
VH: B1 VH with I50Y
VL: B1 VL with T50A
- binding by ELISA relative to parental [2]: 0.09

B6: TPP-5353 (Fab, V domains shown)
VH: B1 VH with I50Y
VL: B1 VL with R90L
- binding by ELISA relative to parental [1]: 0.04

B7: TPP-5906 Fab (Fab, V domains shown)
VH: B1 VH with I48M, I50Y, D56G, D66G, L70M, T72R
VL: B1 VL with S24R, A26S, S49A, P54Q, F95Y
- percent reduction of binding [3]: > 95%
- percent reduction of binding [4]: > 95%
- percent reduction of binding [5]: > 95%

B8: TPP-5339, Hu6C12-24 Fab variant VH: (E1Q, I48M, L70M, T72R, K74T, R84S, D89E, Q97A, T98R) (Fab, V domains shown)
VH: B1 VH with E1Q, I48M, I50Y, L70M, T72R, K74T, R84S, D89E, Q97A, T98R
VL: B1 VL
- binding in ELISA relative to parental Fab (relative to parental Fab) [6]: 0.3

B9: TPP-5906 parental scFv (humanized and germlined 6C12) (scFv)
scFv: DIQLTQSPSFLSASVGDRVTITCRASSSVSYIYWFQQKPGKAPKLLIYATSTLQSGVPSRFSGSGSGTEYTLTISSLQPEDFATYYCHQRNSFPYTFGQGTKLEIKGGGGSGGGGSGGGGSGGGGSEVQLVQSGAEVKKPGASVKVSCKASGYTFTTYTIHWVRQAPGQGLEWMGYINPSSGYTRYNPKFKGRVTMTRDKSTSTAYMELRSLRSDDTAVYYCQTGTRDYWGQGTTVTVSS
- percentage of input scFv antibody bound [7]: 0%
- percentage of input scFv antibody bound [8]: 90%
- percentage of input scFv antibody bound [9]: 100%
- percentage of input scFv antibody bound [10]: 3%
- percentage of input scFv antibody bound [11]: 0%
- percentage of input scFv antibody bound [12]: 16%
